IntAct's records for PubMed 31515488

B1: Mothers against decapentaplegic homolog 4 (Homo sapiens), Q13485 (parent)
chain: MDNMSITNTPTSNDACLSIVHSLMCHRQGGESETFAKRAIESLVKKLKEKKDELDSLITAITTNGAHPSKCVTIQRTLDGRLQVAGRKGFPHVIYARLWRWPDLHKNELKHVKYCQYAFDLKCDSVCVNPYHYERVVSPGIDLSGLTLQSNAPSSMMVKDEYVHDFEGQPSLSTEGHSIQTIQHPPSNRASTETYSTPALLAPSESNATSTANFPNIPVASTSQPASILGGSHSEGLLQIASGPQPGQQQNGFTGQPATYHHNSTTTWTGSRTAPYTPNLPHHQNGHLQHHPPMPPHPGHYWPVHNELAFQPPISNHPAPEYWCSIAYFEMDVQVGETFKVPSSCPIVTVDGYVDPSGGDRFCLGQLSNVHRTEAIERARLHIGKGVQLECKGEGDVWVRCLSDHAVFVQSYYLDREAGRAPGDAVHKIYPSAYIKVFDLRQCHRQMQQQAATAQAAAAAQAAAVAGNIPGPGSVGGIAPAISLSAAAGIGVDDLRRLCILRMSFVKGWGPDYPRQSIKETPCWIEIHLHRALQLLDEVLHTMPIADPQPLD
partner: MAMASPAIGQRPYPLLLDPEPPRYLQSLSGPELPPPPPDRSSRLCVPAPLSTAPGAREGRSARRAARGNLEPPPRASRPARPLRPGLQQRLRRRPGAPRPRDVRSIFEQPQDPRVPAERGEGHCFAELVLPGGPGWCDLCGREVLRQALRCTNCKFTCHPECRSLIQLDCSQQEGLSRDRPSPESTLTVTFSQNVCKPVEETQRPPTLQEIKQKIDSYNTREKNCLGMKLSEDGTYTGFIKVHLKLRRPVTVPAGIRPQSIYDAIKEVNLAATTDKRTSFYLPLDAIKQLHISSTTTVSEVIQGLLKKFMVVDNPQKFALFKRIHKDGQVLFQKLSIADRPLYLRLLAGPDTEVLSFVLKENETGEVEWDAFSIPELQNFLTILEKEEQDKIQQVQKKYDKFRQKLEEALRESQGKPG
B2: Modulator of apoptosis 1 (Homo sapiens), Q96BY2 (parent)
chain: MTLRLLEDWCRGMDMNPRKALLIAGISQSCSVAEIEEALQAGLAPLGEYRLLGRMFRRDENRKVALVGLTAETSHALVPKEIPGKGGIWRVIFKPPDPDNTFLSRLNEFLAGEGMTVGELSRALGHENGSLDPEQGMIPEMWAPMLAQALEALQPALQCLKYKKLRVFSGRESPEPGEEEFGRWMFHTTQMIKAWQVPDVEKRRRLLESLRGPALDVIRVLKINNPLITVDECLQALEEVFGVTDNPRELQVKYLTTYQKDEEKLSAYVLRLEPLLQKLVQRGAIERDAVNQARLDQVIAGAVHKTIRRELNLPEDGPAPGFLQLLVLIKDYEAAEEEEALLQAILEGNFT
partner: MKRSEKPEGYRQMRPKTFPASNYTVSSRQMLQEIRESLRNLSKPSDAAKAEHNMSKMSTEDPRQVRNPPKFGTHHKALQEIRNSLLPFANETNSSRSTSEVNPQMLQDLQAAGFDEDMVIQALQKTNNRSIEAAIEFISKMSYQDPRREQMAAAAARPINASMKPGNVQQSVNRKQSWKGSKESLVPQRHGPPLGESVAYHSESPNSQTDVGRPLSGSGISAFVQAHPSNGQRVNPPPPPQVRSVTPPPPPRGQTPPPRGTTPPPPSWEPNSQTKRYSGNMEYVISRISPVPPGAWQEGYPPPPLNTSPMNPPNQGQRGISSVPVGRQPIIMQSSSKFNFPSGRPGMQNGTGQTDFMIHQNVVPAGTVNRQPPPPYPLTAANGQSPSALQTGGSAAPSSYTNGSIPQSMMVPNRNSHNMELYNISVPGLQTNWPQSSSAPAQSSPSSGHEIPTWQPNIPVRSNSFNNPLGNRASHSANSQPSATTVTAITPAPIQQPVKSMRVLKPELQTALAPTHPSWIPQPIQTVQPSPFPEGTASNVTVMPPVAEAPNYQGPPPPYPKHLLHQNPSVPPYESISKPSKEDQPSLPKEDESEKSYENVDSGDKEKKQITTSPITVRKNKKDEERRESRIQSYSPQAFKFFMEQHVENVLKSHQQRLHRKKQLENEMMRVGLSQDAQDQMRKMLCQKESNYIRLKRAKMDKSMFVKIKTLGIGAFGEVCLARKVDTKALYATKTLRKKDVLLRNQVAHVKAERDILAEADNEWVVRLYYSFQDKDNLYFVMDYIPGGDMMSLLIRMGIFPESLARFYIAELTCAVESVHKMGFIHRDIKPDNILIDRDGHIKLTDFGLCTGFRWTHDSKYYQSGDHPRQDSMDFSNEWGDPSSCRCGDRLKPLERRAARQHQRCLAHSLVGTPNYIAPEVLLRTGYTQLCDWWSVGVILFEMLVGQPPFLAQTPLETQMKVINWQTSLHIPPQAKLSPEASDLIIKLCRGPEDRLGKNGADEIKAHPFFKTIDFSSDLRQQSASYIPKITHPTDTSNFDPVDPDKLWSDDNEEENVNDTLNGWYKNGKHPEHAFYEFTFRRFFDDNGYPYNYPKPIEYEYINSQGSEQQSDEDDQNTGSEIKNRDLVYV
B3: Zinc finger protein Aiolos (Homo sapiens), Q9UKT9 (parent)
chain: MEDIQTNAELKSTQEQSVPAESAAVLNDYSLTKSHEMENVDSGEGPANEDEDIGDDSMKVKDEYSERDENVLKSEPMGNAEEPEIPYSYSREYNEYENIKLERHVVSFDSSRPTSGKMNCDVCGLSCISFNVLMVHKRSHTGERPFQCNQCGASFTQKGNLLRHIKLHTGEKPFKCHLCNYACQRRDALTGHLRTHSVEKPYKCEFCGRSYKQRSSLEEHKERCRTFLQSTDPGDTASAEARHIKAEMGSERALVLDRLASNVAKRKSSMPQKFIGEKRHCFDVNYNSSYMYEKESELIQTRMMDQAINNAISYLGAEALRPLVQTPPAPTSEMVPVISSMYPIALTRAEMSNGAPQELEKKSIHLPEKSVPSERGLSPNNSGHDSTDTDSNHEERQNHIYQQNHMVLSRARNGMPLLKEVPRSYELLKPPPICPRDSVKVINKEGEVMDVYRCDHCRVLFLDYVMFTIHMGCHGFRDPFECNMCGYRSHDRYEFSSHIARGEHRALLK
partner: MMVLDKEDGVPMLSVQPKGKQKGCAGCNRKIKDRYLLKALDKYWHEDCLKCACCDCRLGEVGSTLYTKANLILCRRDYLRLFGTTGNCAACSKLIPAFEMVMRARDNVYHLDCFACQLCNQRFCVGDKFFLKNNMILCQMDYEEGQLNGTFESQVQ
B4: Vesicle transport through interaction with t-SNAREs homolog 1B (Homo sapiens), Q9UEU0 (parent)
chain: MASSAASSEHFEKLHEIFRGLHEDLQGVPERLLGTAGTEEKKKLIRDFDEKQQEANETLAEMEEELRYAPLSFRNPMMSKLRNYRKDLAKLHREVRSTPLTATPGGRGDMKYGIYAVENEHMNRLQSQRAMLLQGTESLNRATQSIERSHRIATETDQIGSEIIEELGEQRDQLERTKSRLVNTSENLSKSRKILRSMSRKVTTNKLLLSIIILLELAILGGLVYYKFFRSH
partner: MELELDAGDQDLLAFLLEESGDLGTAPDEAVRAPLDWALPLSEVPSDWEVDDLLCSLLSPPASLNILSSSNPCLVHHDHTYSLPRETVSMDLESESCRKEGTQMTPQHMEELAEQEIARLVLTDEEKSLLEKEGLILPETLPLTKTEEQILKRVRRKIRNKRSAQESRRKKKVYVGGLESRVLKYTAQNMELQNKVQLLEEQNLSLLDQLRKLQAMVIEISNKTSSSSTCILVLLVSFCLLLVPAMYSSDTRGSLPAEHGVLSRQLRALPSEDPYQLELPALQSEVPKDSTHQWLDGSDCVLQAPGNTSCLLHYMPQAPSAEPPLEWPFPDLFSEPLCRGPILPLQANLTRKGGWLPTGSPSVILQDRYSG
B5: Dystrobrevin beta (Homo sapiens), O60941 (parent)
chain: MIEESGNKRKTMAEKRQLFIEMRAQNFDVIRLSTYRTACKLRFVQKRCNLHLVDIWNMIEAFRDNGLNTLDHTTEISVSRLETVISSIYYQLNKRLPSTHQISVEQSISLLLNFMIAAYDSEGRGKLTVFSVKAMLATMCGGKMLDKLRYVFSQMSDSNGLMIFSKFDQFLKEVLKLPTAVFEGPSFGYTEHSVRTCFPQQRKIMLNMFLDTMMADPPPQCLVWLPLMHRLAHVENVFHPVECSYCRCESMMGFRYRCQQCHNYQLCQNCFWRGHAGGPHSNQHQMKEHSSWKSPAKKLSHAISKSLGCVPTREPPHPVFPEQPEKPLDLAHIVPPRPLTNMNDTMVSHMSSGVPTPTKRLQYSQDIPSHLADEHALIASYVARLQHCARVLDSPSRLDEEHRLIARYAARLAAEAGNVTRPPTDLSFNFDANKQQRQLIAELENKNREILQEIQRLRLEHEQASQPTPEKAQQNPTLLAELRLLRQRKDELEQRMSALQESRRELMVQLEELMKLLKEEEQKQAAQATGSPHTSPTHGGGRPMPMPVRSTSAGSTPTHCPQDSLSGVGGDVQEAFAQGTRRNLRNDLLVAADSITNTMSSLVKELHSAEEGAEEEEEKMQNGKDRG
partner: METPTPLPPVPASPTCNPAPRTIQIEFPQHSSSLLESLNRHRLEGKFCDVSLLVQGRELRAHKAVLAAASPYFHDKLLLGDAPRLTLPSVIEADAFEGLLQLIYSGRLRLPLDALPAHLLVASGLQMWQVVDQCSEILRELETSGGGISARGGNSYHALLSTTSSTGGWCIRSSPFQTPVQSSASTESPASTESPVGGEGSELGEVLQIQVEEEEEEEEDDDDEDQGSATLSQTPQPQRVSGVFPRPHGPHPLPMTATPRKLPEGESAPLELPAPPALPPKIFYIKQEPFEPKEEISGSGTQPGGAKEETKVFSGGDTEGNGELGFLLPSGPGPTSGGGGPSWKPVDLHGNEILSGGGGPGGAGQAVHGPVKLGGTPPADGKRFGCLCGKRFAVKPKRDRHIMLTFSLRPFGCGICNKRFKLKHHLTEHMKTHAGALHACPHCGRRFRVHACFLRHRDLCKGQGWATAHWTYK
B6: RING finger protein 11 (Homo sapiens), Q9Y3C5 (parent)
chain: MGNCLKSPTSDDISLLHESQSDRASFGEGTEPDQEPPPPYQEQVPVPVYHPTPSQTRLATQLTEEEQIRIAQRIGLIQHLPKGVYDPGRDGSEKKIRECVICMMDFVYGDPIRFLPCMHIYHLDCIDDWLMRSFTCPSCMEPVDAALLSSYETN
B7: Pre-mRNA-splicing factor SPF27 (Homo sapiens), O75934 (parent)
chain: MAGTGLVAGEVVVDALPYFDQGYEAPGVREAAAALVEEETRRYRPTKNYLSYLTAPDYSAFETDIMRNEFERLAARQPIELLSMKRYELPAPSSGQKNDITAWQECVNNSMAQLEHQAVRIENLELMSQHGCNAWKVYNENLVHMIEHAQKELQKLRKHIQDLNWQRKNMQLTAGSKLREMESNWVSLVSKNYEIERTIVQLENEIYQIKQQHGEANKENIRQDF
partner: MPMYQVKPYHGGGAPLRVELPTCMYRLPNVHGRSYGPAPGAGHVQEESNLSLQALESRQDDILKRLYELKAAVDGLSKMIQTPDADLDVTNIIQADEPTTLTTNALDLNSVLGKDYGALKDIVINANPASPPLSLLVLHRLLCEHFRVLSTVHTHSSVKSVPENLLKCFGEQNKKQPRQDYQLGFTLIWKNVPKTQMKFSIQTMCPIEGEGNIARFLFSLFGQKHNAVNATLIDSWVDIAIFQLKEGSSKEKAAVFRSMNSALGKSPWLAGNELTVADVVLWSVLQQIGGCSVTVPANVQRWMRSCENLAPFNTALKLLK

Variants of: B1
Details: with rasf5_human RASSF5, Q8WWW0
For N13S, the “effect of a mutation on the interaction” value was “with no effect”. R361C was tested, and the “effect of a mutation on the interaction” value was “with no effect”.

Variants of: B2
Details: with lats1_human LATS1, O95835
MTLRLLEDWCRGMDMNPRKALLIAGISQSCSVAEIEEALQAGLAPLGEYRLLGRMFKRDENRKVALVGLTAETSHALVPKEIPGKGGIWRVIFKPPDPDNTFLSRLNEFLAGEGMTVGELSRALGHENGSLDPEQGMIPEMWAPMLAQALEALQPALQCLKYKKLRVFSGRESPEPGEEEFGRWMFHTTQMIKAWQVPDVEKRRRLLESLRGPALDVIRVLKINNPLITVDECLQALEEVFGVTDNPRELQVKYLTTYQKDEEKLSAYVLRLEPLLQKLVQRGAIERDAVNQARLDQVIAGAVHKTIRRELNLPEDGPAPGFLQLLVLIKDYEAAEEEEALLQAILEGNFT [R57K] was tested, and the “effect of a mutation on the interaction” value was “disrupting interaction strength”.

Variants of: B3
Details: with rbtn1_human LMO1, P25800
With A24V the “effect of a mutation on the interaction” value was “with no effect”. With N119D the “effect of a mutation on the interaction” value was “with no effect”.

Variants of: B3
Details: with rbtn1_human LMO1, P25800
Remark: another data set of the same source
In the case of I338M, the “effect of a mutation on the interaction” value is reported as “with no effect”.

Variants of: B4
Details: with creb3_human CREB3, O43889
For MASSAASSEHFEKLHEIFRGLHEDLQGVPERLLGTAGTEEKKKLIRDFDEKQQEANETLAEMEEELRYAPLSFRNPMMSKLRNYRKDLAKLHREVRSTPLTATPGGRGDMKYGIYAVENEHMNQLQSQRAMLLQGTESLNRATQSIERSHRIATETDQIGSEIIEELGEQRDQLERTKSRLVNTSENLSKSRKILRSMSRKVTTNKLLLSIIILLELAILGGLVYYKFFRSH [R124Q], the “effect of a mutation on the interaction” value was “with no effect”.

Variants of: B5
Details: with zbtb9_human ZBTB9, Q96C00
R80H was tested, and the “effect of a mutation on the interaction” value was “with no effect”.

Variants of: B6
Details: with ub2d4_human UBE2D4, Q9Y2X8
Sequence of ub2d4_human UBE2D4, Q9Y2X8 (Q9Y2X8 whole entry): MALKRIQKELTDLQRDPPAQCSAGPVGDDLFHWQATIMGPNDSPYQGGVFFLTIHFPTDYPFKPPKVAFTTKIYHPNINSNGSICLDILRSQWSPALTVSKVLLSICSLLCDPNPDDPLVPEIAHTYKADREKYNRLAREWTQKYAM
MGNCLKSPTSDDISLLHESQSDRASFGEGTEPDQEPPPPYQEQVPVPVYHPTPSQTRLATQLTEEEQIRIAQRIGLIQHLPKGVYDPGRDGSEKKIWECVICMMDFVYGDPIRFLPCMHIYHLDCIDDWLMRSFTCPSCMEPVDAALLSSYETN [R97W] was tested, and the “effect of a mutation on the interaction” value was “with no effect”.

Variants of: B7
Details: with aimp2_human AIMP2, Q13155
With MAGTGLVAGEVVVDALPYFDQGYEAPGVREAAAALVEEETRRYRPTKNYLSYLTAPDYSAFETDIMRNEFERLAARQPIELLSMKRYELPAPSSGQKNDITAWQECVNNSMAQLEHQAVRIENLELMSQHGCNAWKVYSENLVHMIEHAQKELQKLRKHIQDLNWQRKNMQLTAGSKLREMESNWVSLVSKNYEIERTIVQLENEIYQIKQQHGEANKENIRQDF [N139S] the “effect of a mutation on the interaction” value was “with no effect”.
